{"source": "patent US20210024646A1", "about": "(published 2021)", "binders": {"B1": {"name": "Hu002c-16 (antibody, V domains shown)", "VH": "QVQLVQSGAEVKKPGASVKVSCKASGYTLTSYWMHWVKKAPGQGLEWIGEINPSQGRSNYNEKFKSKVTLTVDRSTSTVYMELSSLRSEDTAVYYCARRGVSGNYFDYWGQGTLVTVSS", "VL": "DIQMTQSPSSLSASVGDRVTITCKASQDINTYLSWFQQKPGKSPKSLIYRSNILVSGVPSRFSGSGSGQDYTLTISSLQPEDFAIYYCLQYDEFPYTFGGGTKLEI"}, "B2": {"name": "Hu002c-6 (antibody, V domains shown)", "VH": "B1 VH with K38R, K39Q, K67R", "VL": "DIQMTQSPSSLSASVGDRVTITCKASQDINTYLSWFQQKPGKAPKSLIYRSNILVSGVPSRFSGSGSGQDYTLTISSLQPEDFATYYCLQYDEFPYTFGQGTKLEIK"}, "B3": {"name": "Hu002c-2 (antibody, V domains shown)", "VH": "B1 VH with K38R, K39Q, I48M, K67R, L70M, V72R, R74T", "VL": "B2 VL"}, "B4": {"name": "Hu002c-8 (antibody, V domains shown)", "VH": "B1 VH with K38R, K39Q, K67R", "VL": "B1 VL"}, "B5": {"name": "Hu002c-4 (antibody, V domains shown)", "VH": "B1 VH with K38R, K39Q, I48M, K67R, L70M, V72R, R74T", "VL": "B1 VL"}, "B6": {"name": "Hu002c-15 (antibody, V domains shown)", "VH": "B1 VH", "VL": "B2 VL with A43S, Q100G"}, "B7": {"name": "Hu002c-12 (antibody, V domains shown)", "VH": "B1 VH with K38R, K39Q", "VL": "B1 VL"}, "B8": {"name": "Hu002c-14 (antibody, V domains shown)", "VH": "B1 VH", "VL": "B2 VL"}, "B9": {"name": "Hu002c-10 (antibody, V domains shown)", "VH": "B1 VH with K38R, K39Q", "VL": "B2 VL"}, "B10": {"name": "Hu002c-7 (antibody, V domains shown)", "VH": "B1 VH with K38R, K39Q, K67R", "VL": "B2 VL with A43S, Q100G"}, "B11": {"name": "Hu002c-11 (antibody, V domains shown)", "VH": "B1 VH with K38R, K39Q", "VL": "B2 VL with A43S, Q100G"}, "B12": {"name": "Hu002c-3 (antibody, V domains shown)", "VH": "B1 VH with K38R, K39Q, I48M, K67R, L70M, V72R, R74T", "VL": "B2 VL with A43S, Q100G"}, "B13": {"name": "Hu001c-15 (antibody, V domains shown)", "VH": "QVQLVQSGAEVKKPGASVKVSCKTSGYTFTNYYIYWVRQAPGQRLEWMGWIYPGNLNIKYNEKFKGRVTITADTSASTAYMELSSLRSEDTAVYYCARDDNYAWFAYWGQGTLVTVSS", "VL": "DIQMTQSPSSLSASVGDRVTITCKASQDVSTAVAWYQQKPGKSPKLLIYWTNTRHTGVPSRFSGSGSGTDHTLTISSLQPEDFATYYCQQHYSTPFTFGQGTKLEIK"}}, "note": "Where a chain is given by its changes, count along the chain named."}
{"target": "T1, extracellular domain of human CD73 protein (CD73-ECD), C-terminus polyhistidine-tagged (UniProt P21589 27-547)", "T1 chain": "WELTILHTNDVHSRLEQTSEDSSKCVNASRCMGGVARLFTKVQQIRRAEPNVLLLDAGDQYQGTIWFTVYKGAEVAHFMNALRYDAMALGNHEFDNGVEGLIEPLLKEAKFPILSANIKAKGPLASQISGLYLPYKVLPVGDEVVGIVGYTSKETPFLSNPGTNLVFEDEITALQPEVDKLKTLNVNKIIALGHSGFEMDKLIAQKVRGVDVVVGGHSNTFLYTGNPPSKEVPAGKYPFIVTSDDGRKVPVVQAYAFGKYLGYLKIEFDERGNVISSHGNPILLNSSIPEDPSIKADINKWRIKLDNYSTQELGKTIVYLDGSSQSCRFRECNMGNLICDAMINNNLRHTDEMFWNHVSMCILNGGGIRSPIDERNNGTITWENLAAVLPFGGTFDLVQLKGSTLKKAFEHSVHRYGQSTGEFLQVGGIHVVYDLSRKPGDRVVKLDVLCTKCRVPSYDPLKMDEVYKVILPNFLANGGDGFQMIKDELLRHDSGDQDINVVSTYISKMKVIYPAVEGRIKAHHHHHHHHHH", "assay": "ELISA", "units": {"EC50": "pM"}}
{"binder": "B1", "EC50": 99}
{"binder": "B2", "EC50": 91}
{"binder": "B3", "EC50": 131}
{"binder": "B4", "EC50": 107}
{"binder": "B5", "EC50": 106}
{"binder": "B6", "EC50": 104}
{"binder": "B7", "EC50": 83}
{"binder": "B8", "EC50": 101}
{"binder": "B9", "EC50": 93}
{"binder": "B10", "EC50": 98}
{"binder": "B11", "EC50": 95}
{"binder": "B12", "EC50": 89}
{"binder": "B13", "EC50": 115}
{"target": "T1, extracellular domain of human CD73 …", "assay": "enzyme inhibition; left table", "units": {"IC50": "pM"}}
{"binder": "B2", "IC50": 64}
{"binder": "B3", "IC50": 42}
{"binder": "B4", "IC50": 25}
{"binder": "B5", "IC50": 49}
{"binder": "B10", "IC50": 28}
{"binder": "B12", "IC50": 36}
{"binder": "B13", "IC50": 40}
{"target": "T2, Carbon-terminal polyhistidine-labeled recombinant cynomolgus monkey CD73 enzyme (cynomolgus monkey, UniProt A0A2K5V5U7 1-547)", "T2 chain": "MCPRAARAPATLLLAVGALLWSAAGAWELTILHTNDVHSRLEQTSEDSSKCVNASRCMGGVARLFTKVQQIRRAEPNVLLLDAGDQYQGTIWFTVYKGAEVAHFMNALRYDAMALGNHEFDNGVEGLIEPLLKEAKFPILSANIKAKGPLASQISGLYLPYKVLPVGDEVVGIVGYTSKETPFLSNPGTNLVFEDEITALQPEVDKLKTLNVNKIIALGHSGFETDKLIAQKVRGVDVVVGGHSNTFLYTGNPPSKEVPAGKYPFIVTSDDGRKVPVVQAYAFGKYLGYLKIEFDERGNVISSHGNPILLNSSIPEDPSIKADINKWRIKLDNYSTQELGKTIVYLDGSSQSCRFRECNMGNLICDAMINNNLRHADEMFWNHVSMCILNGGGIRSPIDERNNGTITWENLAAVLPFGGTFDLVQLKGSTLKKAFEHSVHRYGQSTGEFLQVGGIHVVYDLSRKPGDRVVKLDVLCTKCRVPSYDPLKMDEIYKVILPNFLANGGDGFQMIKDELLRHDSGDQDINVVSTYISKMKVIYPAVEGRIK", "assay": "enzyme inhibition; left table", "units": {"IC50": "pM"}}
{"binder": "B2", "IC50": 55}
{"binder": "B3", "IC50": 43}
{"binder": "B4", "IC50": 41}
{"binder": "B5", "IC50": 47}
{"binder": "B10", "IC50": 52}
{"binder": "B12", "IC50": 46}
{"binder": "B13", "IC50": 100}
{"target": "T1, extracellular domain of human CD73 …", "assay": "enzyme inhibition; right table", "units": {"IC50": "pM"}}
{"binder": "B1", "IC50": 68}
{"binder": "B6", "IC50": 75}
{"binder": "B7", "IC50": 57}
{"binder": "B8", "IC50": 58}
{"binder": "B9", "IC50": 59}
{"binder": "B11", "IC50": 60}
{"binder": "B13", "IC50": 20}
{"target": "T2, Carbon-terminal polyhistidine-labeled …", "assay": "enzyme inhibition; right table", "units": {"IC50": "pM"}}
{"binder": "B1", "IC50": 72}
{"binder": "B6", "IC50": 74}
{"binder": "B7", "IC50": 58}
{"binder": "B8", "IC50": 56}
{"binder": "B9", "IC50": 59}
{"binder": "B11", "IC50": 65}
{"binder": "B13", "IC50": 50}
{"target": "T3, CD73 on the surface of human tumor cells (human, UniProt P21589 27-549)", "T3 chain": "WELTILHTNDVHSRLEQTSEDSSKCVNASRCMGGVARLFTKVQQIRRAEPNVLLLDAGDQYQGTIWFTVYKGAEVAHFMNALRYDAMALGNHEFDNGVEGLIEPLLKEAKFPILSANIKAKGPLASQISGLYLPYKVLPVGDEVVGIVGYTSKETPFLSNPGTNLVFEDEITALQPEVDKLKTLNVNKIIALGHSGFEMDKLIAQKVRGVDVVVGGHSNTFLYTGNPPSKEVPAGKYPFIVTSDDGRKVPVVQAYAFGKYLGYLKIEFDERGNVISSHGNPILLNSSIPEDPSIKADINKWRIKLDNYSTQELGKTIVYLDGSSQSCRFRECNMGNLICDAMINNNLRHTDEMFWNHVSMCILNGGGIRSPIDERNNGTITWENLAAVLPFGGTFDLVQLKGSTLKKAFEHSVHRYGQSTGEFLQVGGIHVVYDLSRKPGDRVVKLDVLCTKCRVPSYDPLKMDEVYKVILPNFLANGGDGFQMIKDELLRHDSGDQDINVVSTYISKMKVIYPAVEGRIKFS", "assay": "FACS; NCI-H1299 cells, left table", "units": {"EC50": "pM"}}
{"binder": "B2", "EC50": 836}
{"binder": "B3", "EC50": 874}
{"binder": "B4", "EC50": 910}
{"binder": "B5", "EC50": 873}
{"binder": "B10", "EC50": 829}
{"binder": "B12", "EC50": 902}
{"target": "T3, CD73 on the surface of human tumor cells", "assay": "FACS; NCI-H1299 cells, right table", "units": {"EC50": "pM"}}
{"binder": "B1", "EC50": 860}
{"binder": "B6", "EC50": 804}
{"binder": "B7", "EC50": 820}
{"binder": "B8", "EC50": 822}
{"binder": "B9", "EC50": 758}
{"binder": "B11", "EC50": 774}
{"target": "T3, CD73 on the surface of human tumor cells", "assay": "FACS; MDA-MB-231 cells, left table", "units": {"EC50": "pM"}}
{"binder": "B2", "EC50": 690}
{"binder": "B3", "EC50": 666}
{"binder": "B4", "EC50": 662}
{"binder": "B5", "EC50": 696}
{"binder": "B10", "EC50": 659}
{"binder": "B12", "EC50": 743}
{"target": "T3, CD73 on the surface of human tumor cells", "assay": "FACS; MDA-MB-231 cells, right table", "units": {"EC50": "pM"}}
{"binder": "B1", "EC50": 632}
{"binder": "B6", "EC50": 717}
{"binder": "B7", "EC50": 715}
{"binder": "B8", "EC50": 642}
{"binder": "B9", "EC50": 702}
{"binder": "B11", "EC50": 693}
{"target": "T3, CD73 on the surface of human tumor cells", "assay": "inhibition of cell-surface CD73 enzyme activity; left panel", "units": {"IC50": "pM"}}
{"binder": "B2", "IC50": 410}
{"binder": "B3", "IC50": 478}
{"binder": "B4", "IC50": 223}
{"binder": "B5", "IC50": 330}
{"binder": "B10", "IC50": 279}
{"binder": "B12", "IC50": 535}
{"target": "T3, CD73 on the surface of human tumor cells", "assay": "inhibition of cell-surface CD73 enzyme activity; right panel", "units": {"IC50": "pM"}}
{"binder": "B1", "IC50": 327}
{"binder": "B6", "IC50": 591}
{"binder": "B7", "IC50": 498}
{"binder": "B8", "IC50": 437}
{"binder": "B9", "IC50": 441}
{"binder": "B11", "IC50": 445}
